The target of assay [1] is T1, human Galectin-3 (human, UniProt P17931 2-250, limits assumed).
T1 construct: also called Human GAL-3; hGal-3
The assay is described as follows: SPR. (In general: SPR reads the build-up and loss of mass on a sensor chip optically.)

Assay [2] deals with T2, Mouse GAL-3 (mouse, UniProt P16110 2-264, limits assumed).
T2 construct: also called mouse Galectin-3
The assay is described as follows: SPR.

For assay [3], the target named is T3, Rat GAL-3 (rat, UniProt P08699 2-262, limits assumed).
T3 construct: also called rat Galectin-3
T3 sequence (looked up): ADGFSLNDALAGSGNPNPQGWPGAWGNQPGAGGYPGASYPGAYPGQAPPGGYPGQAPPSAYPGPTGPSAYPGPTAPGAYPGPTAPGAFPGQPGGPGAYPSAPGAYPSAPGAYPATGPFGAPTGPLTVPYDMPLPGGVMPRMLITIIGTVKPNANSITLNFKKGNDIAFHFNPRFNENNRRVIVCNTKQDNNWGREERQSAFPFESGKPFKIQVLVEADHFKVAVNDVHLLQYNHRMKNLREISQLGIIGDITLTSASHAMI
Description: SPR.

Assay [4] concerns the target T4, Gal3-e.
T4 construct: also called Galectin3-e; Gal-3 peptide
T4 peptide: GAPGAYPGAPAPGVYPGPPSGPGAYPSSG
The assay is described as follows: size exclusion chromatography of the mixture. How it is done: For X-ray diffraction, first we developed a homogeneous Gal3-e-Fab complex through Size Exclusion Chromatography (SEC) and analyzed the complex through crystallization screening and optimization. However, no diffraction patterns but only large block- and rod-shaped crystals were observed by multi-rounds of optimization. Screened commercial kits included crystal screens, structure screens, Index, JCSG plus, PEG/Ion1&2, ProPlex screens, and additive screens.
Excess Gal3-e were incubated with the Fab on ice for 30 minutes. After the incubation, Gal3-e-Fab complex was isolated from the mixture using SEC (Column: Superdex 75 increase 10/300).

Assay [5] addresses T1, human Galectin-3. The assay is described as follows: ELISA on human Galectin-3. For orientation: In an ELISA, binding on a coated surface is turned into a signal by an enzyme label.

T1 sequence (P17931 2-250 limits assumed): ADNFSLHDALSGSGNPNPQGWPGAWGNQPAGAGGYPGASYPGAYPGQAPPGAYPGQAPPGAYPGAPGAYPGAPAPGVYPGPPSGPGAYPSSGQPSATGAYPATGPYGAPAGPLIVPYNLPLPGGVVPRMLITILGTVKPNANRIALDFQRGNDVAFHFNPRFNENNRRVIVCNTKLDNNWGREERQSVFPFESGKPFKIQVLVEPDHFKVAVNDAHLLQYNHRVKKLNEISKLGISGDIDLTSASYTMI
T2 sequence (P16110 2-264 limits assumed): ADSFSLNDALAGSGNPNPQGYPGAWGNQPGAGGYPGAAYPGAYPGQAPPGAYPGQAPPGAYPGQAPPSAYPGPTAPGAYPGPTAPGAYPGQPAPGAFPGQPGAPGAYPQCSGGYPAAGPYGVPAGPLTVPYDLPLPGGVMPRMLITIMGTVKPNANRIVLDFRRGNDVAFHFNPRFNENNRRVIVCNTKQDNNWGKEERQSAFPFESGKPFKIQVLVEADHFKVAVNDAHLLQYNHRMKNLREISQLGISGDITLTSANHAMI

B1: SIF001 (antibody, V domains shown)
VH: QVQLVQSGSELKKPGASVKVSCKASGYTFTNYGMNWVRQAPGQGLEWMGWINTYTGEPTYADDFKGRFVFSLDTSVSTAYLQISSLKNEDMAVYFCARYAMDYWGQGTLVTVSS
VL: EAVVTQEPSLTVSPGGTVTLTCRSSTGAVTTSNYANWVQQKPGQAFTGLIGGTSNRAPGTPARFSGSLLGDKAALTLLGAQPEDEAEYFCALWYSTHYVFGGGTKLTVL
notes: Humanized monoclonal antibody raised against human GAL-3; also called SIF001 Ab; SF001
On to B1, for which the Kd (in general, the concentration at which binding is half-saturated) in assay [1] amounted to 71.5 nM; in assay [2], 10.9 nM; in assay [3], 11.7 nM.

B2: Fab of the SIF001 antibody (Fab, V domains shown)
VH: QVQLVQSGSELKKPGASVKVSCKASGYTFTNYGMNWVRQAPGQGLEWMGWINTYTGEPTYADDFKGRFVFSLDTSVSTAYLQISSLKNEDMAVYFCARYAMDYWGQGTLVTVSS
VL: EAVVTQEPSLTVSPGGTVTLTCRSSTGAVTTSNYANWVQQKPGQAFTGLIGGTSNRAPGTPARFSGSLLGDKAALTLLGAQPEDEAEYFCALWYSTHYVFGGGTKLTVL
Turning to B2, the binding result in assay [4] is on record as “binds”.

B3: SIF002 (antibody, V domains shown)
VH: EVQLLESGGGLVQPGGSLRLSCAASGFTFSRFWMSWVRQAPGKGLEWVSEISPDSNTIDLTPSLKDRFTISRDNSKNTLYLQMNSLRAEDTAVYYCAKPYYGYYWGQGTLVTVSS
VL: DIVMTQSPDSLAVSLGERATMNCRSSQSLFSSTNQKNYLTWYQQKPGQPPKLLIYWASSRESGVPDRFSGSGSGTDFTLTISSLQAEDVAVYYCQNDYTSPFTFGQGTRLEIK
As for B3, in assay [5], the binding result was “binds”.
